Laboratory results published in the supplement of paper PMC7125110.
± gives the standard error. Fewer inactive variants are shown than the library holds.

B1: glmS ribozyme (parent)
chain: AUAAAAGCGCCAGAACUACAGAAAUGUAGUUGACGAGGAGGAGGUUUAUCGAAUUUUCGGCGGAUGCCUCCAAA

Variants of: B1
Assay: self-cleavage kobs at 2500 uM GlcN6P; higher = faster cleavage; RNA array
Conditions: with glucosamine-6-phosphate
Procedure, shortened: (§1)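 On sequenced MiSeq chips, barcoded ribozyme variants were made in situ by E. coli RNA polymerase and followed at 37 °C through a hybridised Cy3 probe. Glucosamine-6-phosphate was flowed in at 40 μM to 10 mM in HEPES/KCl/Mg(OAc)2 buffer. Exponential fits to normalised per-tile medians gave kobs, and weighted Michaelis–Menten fits gave kcat and KM.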

Variant	self-cleavage kobs at 2500 uM GlcN6P
C8G G35A U65C	< 1e-05 s⁻¹
G38U G43C A53U	< 1e-05 s⁻¹
G7A A12C A15U G41U	< 1e-05 s⁻¹
C8U A42G G43U U49G	< 1e-05 s⁻¹
G7U A52G G60C C67G	< 1e-05 s⁻¹
G35A A36U G41A C58A	< 1e-05 s⁻¹
G9A A14G A15U U55A	7.2e-05 ± 1.6e-05 s⁻¹
G7A G38U G41U	< 1e-05 s⁻¹
G40U U49A	< 1e-05 s⁻¹
A6U A12U U55A	0.000377 ± 9.2e-05 s⁻¹
A6G U30C G44U A52C G63U	< 1e-05 s⁻¹
G7U A64G G66A	< 1e-05 s⁻¹
G37C A52C	< 1e-05 s⁻¹
G7C C16A G43C U45G C71U	< 1e-05 s⁻¹
G7U A39U C50A	< 1e-05 s⁻¹
G40U G44A C50G C71G	< 1e-05 s⁻¹
C8A C50G U69G	0.000345 ± 7.5e-05 s⁻¹
G40U U54C	0.00431 ± 0.0006 s⁻¹
C8U G51U U57C	< 1e-05 s⁻¹
G32C A42U A53G U57A A64G	< 1e-05 s⁻¹
C8U G38A C70A	< 1e-05 s⁻¹
C8U A36U C50U	< 1e-05 s⁻¹
C8G C11A G13U A33U A36C U55C C58G C71G	< 1e-05 s⁻¹
G7A G9A G38A U65G	< 1e-05 s⁻¹

Variants of: B1
Assay: self-cleavage kobs at 640 uM GlcN6P; higher = faster cleavage; RNA array
Conditions: with glucosamine-6-phosphate
Procedure, shortened: as §1

Variant	self-cleavage kobs at 640 uM GlcN6P
G38U G43C A53U	< 1e-05 s⁻¹
C58G C68A	0.000125 ± 3e-05 s⁻¹
G40C G41C C68A	< 1e-05 s⁻¹
G35A A36U G41A C58A	< 1e-05 s⁻¹
A39C C58G C67G C71G	< 1e-05 s⁻¹
G40U U49A	< 1e-05 s⁻¹
C34G A53C A64C	< 1e-05 s⁻¹
U54A G62A G66C	< 1e-05 s⁻¹
G32A U57A C70G	0.000649 ± 0.00023 s⁻¹
A48U U49C U55A U56C U69C	< 1e-05 s⁻¹
G37C A52C	< 1e-05 s⁻¹
A33G A36U C70G	0.000157 ± 5.3e-05 s⁻¹
G40U G44A C50G C71G	< 1e-05 s⁻¹
G40U U54C	0.000738 ± 0.00016 s⁻¹
G32C A42U A53G U57A A64G	< 1e-05 s⁻¹
A39G G60A U69G	< 1e-05 s⁻¹
G51C A52C G60A	< 1e-05 s⁻¹
G35C A39C G43C U56A	< 1e-05 s⁻¹
G37U C58U U69A	5.7e-05 ± 1.7e-05 s⁻¹
G44U U45G A53C	0.000372 ± 0.00011 s⁻¹
C34G G37C	< 1e-05 s⁻¹

Variants of: B1
Assay: self-cleavage kobs at 10000 uM GlcN6P; higher = faster cleavage; RNA array
Conditions: with glucosamine-6-phosphate
Procedure, shortened: as §1

Variant	self-cleavage kobs at 10000 uM GlcN6P
G40U U49A	< 1e-05 s⁻¹
G37C A52C	< 1e-05 s⁻¹
C34G G37C	< 1e-05 s⁻¹
G7A G9A G38A U65G	< 1e-05 s⁻¹
